Article PMC2064240 (The Journal of Cell Biology, 2006)

Target: T1, GST-SV343-571 (bovine, UniProt O46385-2 343-571)
T1 sequence (looked up): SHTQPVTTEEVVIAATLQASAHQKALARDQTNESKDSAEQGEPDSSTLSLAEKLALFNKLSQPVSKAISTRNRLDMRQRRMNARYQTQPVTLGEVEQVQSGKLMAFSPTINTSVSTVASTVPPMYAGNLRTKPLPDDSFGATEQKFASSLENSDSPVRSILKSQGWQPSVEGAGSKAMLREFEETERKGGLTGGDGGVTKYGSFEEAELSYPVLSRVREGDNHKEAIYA
Experiment: pull-down

- binding result: binds
B1: 6×His-tagged TRIP6 LIM domains (aa 265-476) (domain or fragment, human (HeLa cell cDNA library), UniProt Q15654-1 265-476, looked up)
chain: HDMNHPPSGEYFGQCGGCGEDVVGDGAGVVALDRVFHVGCFVCSTCRAQLRGQHFYAVERRAYCEGCYVATLEKCATCSQPILDRILRAMGKAYHPGCFTCVVCHRGLDGIPFTVDATSQIHCIEDFHRKFAPRCSVCGGAIMPEPGQEETVRIVALDRSFHIGCYKCEECGLLLSSEGECQGCYPLDGHILCKACSAWRIQELSATVTTDC
